This assay addresses extracellular soluble part of EGFR (sEGFR) (UniProt P00533). In words: SPR.

Consider one substance from paper PMC5776806.

With EGF (ligand), the Kd was 60 nM.
